Data published in the supplement of paper PMC9732359.
± gives the uncertainty stated by the source.

Test: protein stability index of a GFP-peptide fusion (yeast GPS) (PSI 1-4); higher = more stable; sorted into four equal gates, so the index is relative within each strain
Summary of the method: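 Yeast carrying a pooled library were grown to mid-log phase in leucine-free medium. Each library plasmid expresses Cherry and has a tiled 17-residue yeast protein peptide fused downstream of GFP. Cells were sorted into four equal gates by GFP/Cherry ratio, and plasmids from each gate were PCR-amplified, Illumina-sequenced and assigned to strains by barcode. Summing, across gates, the read frequency times the gate number gave each peptide's protein stability index.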

Row | Sequence | protein stability index (doa10∆) | protein stability index (pdr5∆) | protein stability index (san1∆) | protein stability index (ubr1∆)
1 | RAVANRTDATFIRVIGS [RPT1] | 3.22 ± 0.1 | 3.26 ± 0.069 | 3.17 ± 0.082 | 3.09 ± 0.062
2 | RCMMAAQYFYSGAYSYP [DIS3] | 2.14 ± 0.12 | 2.31 ± 0.11 | 1.81 ± 0.2 | 2.12 ± 0.11
3 | RCTKIIKGNGESDETTT [RPT1] | 3.18 ± 0.14 | – | 3.36 ± 0.038 | 3.54 ± 0.11
4 | RCWKANIPWDVPGMPAP [PRP8] | 2.15 ± 0.081 | 1.5 ± 0.077 | 1.28 ± 0.12 | 2.73 ± 0.18
5 | RDCIDISIFSTPGSVSL [PRP8] | 2.79 ± 0.11 | 2.88 ± 0.11 | 2.45 ± 0.1 | 3.02 ± 0.12
6 | RDGVLTVTLNKNREVVQ [RRP45] | 2.71 ± 0.11 | 2.93 ± 0.11 | 2.81 ± 0.08 | 2.73 ± 0.088
7 | RDRKLITDKGTVDGRLY [YJL039C/NUP192] | 3.16 ± 0.12 | 3.22 ± 0.074 | 3.19 ± 0.071 | 3.17 ± 0.076
8 | RDRTSGQKLLAIKYGYE [SRB4] | 2.9 ± 0.15 | 3.17 ± 0.11 | 3.11 ± 0.084 | 3.23 ± 0.096
9 | RDVELSSDELKVIEEQL [SMC4] | 3.27 ± 0.058 | 3.25 ± 0.072 | 2.94 ± 0.054 | 3.26 ± 0.055
10 | REAIRPGHEMEDFLDKS [AAR2] | 3.23 ± 0.062 | 2.87 ± 0.056 | 3.24 ± 0.044 | 3.22 ± 0.036
11 | REDTPLSQNESTRASTV [ISW2] | 2.96 ± 0.067 | 3.11 ± 0.058 | 2.96 ± 0.052 | 2.97 ± 0.048
12 | REHSLQLFRTNKVQIMI [PRP28] | 1.61 ± 0.063 | 1.75 ± 0.065 | 1.61 ± 0.084 | 2.07 ± 0.037
13 | REKNALKRLAWQYIVID [ISW2] | 2.1 ± 0.099 | 1.74 ± 0.14 | 1.76 ± 0.12 | 2.03 ± 0.082
14 | REKRAREKAEAEAEKKK [RPL13A] | – | 3.62 ± 0.13 | 3.31 ± 0.061 | –
15 | RENIAMLKRFFPGVKGL [SMC1] | 2.5 ± 0.17 | 2.49 ± 0.2 | 2.01 ± 0.13 | 2.43 ± 0.15
16 | RERRIHVTQEDFELAVG [RPT6] | 2.38 ± 0.074 | 2.74 ± 0.06 | 2.08 ± 0.074 | 2.61 ± 0.066
17 | REYLEEYKSLFVVGVDN [RPP0] | 3.11 ± 0.075 | 2.55 ± 0.087 | 2.91 ± 0.1 | 3.24 ± 0.071
18 | RFEVINNETEQLKAEEK [SMC1] | 1.72 ± 0.08 | 2.06 ± 0.092 | 3.05 ± 0.13 | 2.6 ± 0.12
19 | RFNHLVTRLFFICSIIQ [YML031W/NDC1] | 1.22 ± 0.046 | 1.29 ± 0.039 | 1.32 ± 0.086 | 1.49 ± 0.039
20 | RFRKAQCPIIERLTNSL [RPS5] | 2.32 ± 0.2 | 2.82 ± 0.26 | – | 2.07 ± 0.21
21 | RFSYSPPKEGNYEIVFD [YMR129W/POM152] | 3.05 ± 0.29 | 3.24 ± 0.18 | 3.13 ± 0.071 | 3.45 ± 0.16
22 | RFWSFMKTQRFVSNMGF [SIR4] | 1.55 ± 0.21 | 1.4 ± 0.11 | 1.82 ± 0.13 | 1.68 ± 0.048
23 | RGEIREIEQVCKQVHDK [MED7] | 3.06 ± 0.077 | 3.27 ± 0.046 | 2.8 ± 0.062 | 2.87 ± 0.073
24 | RGFGKINKQRVPLSDNA [RPL7A] | 3.03 ± 0.091 | 3.5 ± 0.11 | 3.29 ± 0.094 | 2.91 ± 0.066
25 | RGGGHHSFEDAHTPMLQ [FAS1] | 3.3 ± 0.26 | 3.48 ± 0.21 | – | –
26 | RGLTPQEFFFHAMGGRE [RPO21] | 2.32 ± 0.05 | 2.42 ± 0.054 | 2.2 ± 0.074 | 2.35 ± 0.046
27 | RGVRPYKHIDASGSINR [RPS19A] | 3.23 ± 0.089 | 3.42 ± 0.1 | 3.1 ± 0.062 | 3.23 ± 0.091

Row | Sequence | protein stability index (doa10∆) | protein stability index (pdr5∆) | protein stability index (san1∆) | protein stability index (ubr1∆)
28 | RHHWQYTKASLAKERQK [SSN8] | 1.74 ± 0.072 | 1.66 ± 0.07 | 1.4 ± 0.14 | 2.14 ± 0.064
29 | RHMALLVDVMTTQGGLT [RPO21] | 1.92 ± 0.15 | 2.38 ± 0.092 | 2.44 ± 0.09 | –
30 | RHNKSHTLCNRCGRRSF [RPL37A] | 3.25 ± 0.045 | 3.18 ± 0.064 | 2.82 ± 0.042 | 3.08 ± 0.039
31 | RHSNALVDILPPDSDSS [RPT3] | 2.51 ± 0.076 | 2.65 ± 0.067 | 2.69 ± 0.062 | 2.47 ± 0.056
32 | RIFKITEKLSPLASEES [YGL100W/SEH1] | 2.82 ± 0.056 | 2.5 ± 0.055 | 2.41 ± 0.066 | 2.57 ± 0.032
33 | RIGKHRKHPGGRGMAGG [RPL28] | 2.92 ± 0.12 | 2.63 ± 0.24 | 2.97 ± 0.1 | 3.22 ± 0.16
34 | RIHTNDNDIMNLGSRTK [SSN3] | 3.08 ± 0.048 | 2.97 ± 0.043 | 2.95 ± 0.035 | 3.03 ± 0.037
35 | RIIEKSVRRSGALDVEG [RRP45] | 2.43 ± 0.07 | 2.65 ± 0.075 | 2.47 ± 0.11 | 2.53 ± 0.072
36 | RIISGDQITKMKDRLVE [RPN9] | – | – | 3.34 ± 0.26 | 2.69 ± 0.19
37 | RILSTLDRELLKPSMSV [RPT3] | 3.04 ± 0.081 | 2.73 ± 0.11 | 3.07 ± 0.073 | 2.57 ± 0.15
38 | RIYTNSFIDIMEVLGIE [RPO21] | 2.84 ± 0.059 | 2.94 ± 0.052 | 3.02 ± 0.045 | 2.81 ± 0.041
39 | RKANREEKLKANKEKKR [RPL24B] | 2.86 ± 0.074 | 1.96 ± 0.065 | 2.12 ± 0.087 | 2.27 ± 0.053
40 | RKKKFVLDVDPKYAKQK [ISW2] | 2.91 ± 0.077 | 2.45 ± 0.066 | 2.25 ± 0.12 | 2.66 ± 0.076
41 | RKWAARAASAKIESSVE [RPS8A] | 3.21 ± 0.087 | 3.2 ± 0.062 | 2.74 ± 0.056 | 3.4 ± 0.054
42 | RKYEISFGKIYVTKPMV [RPB2] | 1.95 ± 0.092 | 2.44 ± 0.21 | 1.88 ± 0.19 | 2.16 ± 0.11
43 | RLAKKPSMKKIKIEPSA [SIR3] | 2.48 ± 0.094 | 3.06 ± 0.099 | 2.76 ± 0.071 | 2.88 ± 0.065
44 | RLGFFYNDQLYVKEKLE [RPN7] | 2.56 ± 0.17 | 3.13 ± 0.19 | – | 3.5 ± 0.087
45 | RLISQSLLASKSTYRTP [RIP1] | 2.79 ± 0.12 | 3.04 ± 0.21 | 2.82 ± 0.22 | 2.45 ± 0.14
46 | RLMMNSKVGSADTGRDD [RPN11] | 3.39 ± 0.085 | 3.36 ± 0.068 | 3.51 ± 0.058 | 3.52 ± 0.07
47 | RLNYLYQISAYQTRARQ [RPR2] | 1.56 ± 0.034 | 1.84 ± 0.037 | 1.85 ± 0.054 | 1.89 ± 0.035
48 | RLQAKRLKDVEWVKLHR [RMP1] | 2.97 ± 0.069 | 3.09 ± 0.076 | 3.15 ± 0.056 | 2.03 ± 0.062
49 | RLQQGRRLPMTMFTAEQ [SNF2] | 3.09 ± 0.053 | 3.19 ± 0.048 | 3.13 ± 0.043 | 3.27 ± 0.045
50 | RLRKRVTIIPLDKIYTR [SMC2] | 2 ± 0.073 | 1.66 ± 0.095 | 1.84 ± 0.071 | 1.36 ± 0.051
51 | RLTMGNVFTPEISSQIE [RRI2] | 2.7 ± 0.11 | 3.06 ± 0.079 | 2.95 ± 0.1 | 2.92 ± 0.09
52 | RLWLKKVMEEEEQDCKC [POP8] | 2.5 ± 0.095 | 2.9 ± 0.084 | 3.07 ± 0.079 | 2.8 ± 0.083
53 | RMNTIITHPGKMELVYV [SIR4] | – | – | – | 1.21 ± 0.24
54 | RMPIMLRSNKCILYDAD [RET1] | 1.23 ± 0.15 | 1.41 ± 0.11 | 1.25 ± 0.25 | 1.77 ± 0.095
